Results from PMC6128732.

Molecular target: Biotinylated Xenopus laevis XRCC4-Avitag (Xenopus laevis)
Assay: BLI

Kd: 280 nM
Substance: Xenopus laevis XLF^1-226 (C-terminally truncated XLF) (from UniProt A0A1L8ENT6 1-226) (domain or fragment)
